Assay in all cases: cell-based or functional assay
The target of assay [1] is HIV-1 APV13 envelope glycoprotein (Env) on pseudovirus (HIV-1).
The target of assay [2] is HIV-1 APV17 envelope glycoprotein (Env) on pseudovirus (HIV-1).
For assay [3], the target named is HIV-1 Env of isolate 92UG005 (subtype D) (HIV-1).
Assay [4] addresses HIV-1 Env of isolate MG RM-AG-008 (HIV-1).
Assay [5] has as its target HIV-1 Env of isolate MG RM-AG-009 (HIV-1).
In assay [6] the target is HIV-1 Env of isolate MG RM-AG-012 (HIV-1).
Assay [7] addresses HIV-1 Env of isolate MGRM-C-010 (pseudovirus) (HIV-1 isolate MGRM-C-010, subtype C).
The target of assay [8] is HIV-1 Env of isolate MGRM-F1-015 (HIV-1).
The target in assay [9] is HIV-1 Env of isolate MGRM-F1-023 (HIV-1).
Assay [10] concerns the target HIV-1 JR-CSF Env D185A (HIV-1 (isolate JR-CSF)) (UniProt P20871).
For assay [11], the target named is HIV-1 JR-CSF Env N478A (HIV-1 (isolate JR-CSF)) (UniProt P20871).
Assay [12] addresses HIV-1 JR-CSF Env R476A (HIV-1 (isolate JR-CSF)) (UniProt P20871).
Assay [13] concerns the target HIV-1 JRFL envelope glycoprotein (Env) on pseudovirus (HIV-1).
Assay [14] addresses HIV-1 MGRM-Chronic-B-003 Env (pseudovirus) (HIV-1).
Assay [15] concerns the target HIV-1 MGRM-D-001 envelope glycoprotein (Env) on pseudovirus (HIV-1).
For assay [16], the target named is HIV-1 QH0692.42 Env (pseudovirus) (HIV-1).
Assay [17] concerns the target HIV-1 92TH021 Env (on pseudovirus) (HIV-1).
Assay [18] addresses HIV-1 APV17 Env (on pseudovirus) (HIV-1).
For assay [19], the target named is HIV-1 Env of isolate MGRM-G-001 (subtype G) (HIV-1).
For assay [20], the target named is HIV-1 MGRM-A-010 Env (on pseudovirus) (HIV-1).
In assay [21] the target is HIV-1 MGRM-C-028 Env (on pseudovirus) (HIV-1).
Assay [22] concerns the target HIV-1 NL43 Env (on pseudovirus) (HIV-1).
Assay [23] concerns the target HIV-1 envelope glycoprotein (Env) of isolate MGRM-C-019, on pseudovirus (HIV-1).
Assay [24] concerns the target HIV-1 envelope glycoprotein (Env) of isolate MGRM-C-025, on pseudovirus (HIV-1).

Sequence of PGT-141 (4964_G22; 4993_K13) (antibody) (VH): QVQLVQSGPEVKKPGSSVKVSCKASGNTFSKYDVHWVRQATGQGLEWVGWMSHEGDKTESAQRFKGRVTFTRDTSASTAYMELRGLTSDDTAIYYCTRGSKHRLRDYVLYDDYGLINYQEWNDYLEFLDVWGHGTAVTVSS
Sequence of PGT-141 (4964_G22; 4993_K13) (antibody) (VL): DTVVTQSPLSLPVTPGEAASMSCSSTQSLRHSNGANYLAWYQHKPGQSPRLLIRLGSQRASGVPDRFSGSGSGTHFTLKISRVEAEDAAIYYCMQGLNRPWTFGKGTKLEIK
Sequence of PGT-144 (4970_K22) (antibody) (VH): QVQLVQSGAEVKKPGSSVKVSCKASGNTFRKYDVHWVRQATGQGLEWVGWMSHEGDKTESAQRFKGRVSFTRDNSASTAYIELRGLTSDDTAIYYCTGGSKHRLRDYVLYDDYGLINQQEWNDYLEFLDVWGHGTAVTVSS
Sequence of PGT-144 (4970_K22) (antibody) (VL): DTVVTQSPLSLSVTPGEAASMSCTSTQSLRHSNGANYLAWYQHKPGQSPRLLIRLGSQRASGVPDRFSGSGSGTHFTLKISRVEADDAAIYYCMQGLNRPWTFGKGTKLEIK
Sequence of PGT-142 (4995_E20) (antibody) (VH): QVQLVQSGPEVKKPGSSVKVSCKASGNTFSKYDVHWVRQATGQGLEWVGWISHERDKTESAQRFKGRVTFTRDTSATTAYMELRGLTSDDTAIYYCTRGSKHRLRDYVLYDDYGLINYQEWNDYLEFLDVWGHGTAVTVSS
Sequence of PGT-143 (4980_N08) (antibody) (VH): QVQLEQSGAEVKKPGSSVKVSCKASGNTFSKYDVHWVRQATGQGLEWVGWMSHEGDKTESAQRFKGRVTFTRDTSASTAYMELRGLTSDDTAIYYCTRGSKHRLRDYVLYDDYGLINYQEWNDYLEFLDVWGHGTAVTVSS
Sequence of PGT-143 (4980_N08) (antibody) (VL): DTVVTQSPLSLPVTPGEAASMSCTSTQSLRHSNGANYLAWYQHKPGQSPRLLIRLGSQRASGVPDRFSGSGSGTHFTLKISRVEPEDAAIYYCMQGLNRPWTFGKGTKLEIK

For orientation: IC50 means the midpoint of a concentration-inhibition curve. Low readings indicate higher potency, high ones lower potency. Consider 4858_P08 (PGT-123) (antibody), for which the IC50 (ug/ml), neutralizing activity in assay [1] stood at 0.222 µg/mL; in assay [2], 0.18 µg/mL; in assay [13] it was 0.0283 µg/mL; in assay [15], 0.215 µg/mL. Also, the IC50, pseudovirus neutralization was found to be 0.222 µg/mL in assay [1]; 0.18 µg/mL in [2]; 0.0283 µg/mL in [13]; 0.008 µg/mL in assay [14]; 0.215 µg/mL in [15]; 0.158 µg/mL in assay [16]. Also, the IC80, pseudovirus neutralization in [1] is 0.879 µg/mL; in assay [2], 0.539 µg/mL; in assay [13], 0.0904 µg/mL; in assay [15], 0.678 µg/mL. The IC90 (pseudovirus neutralization) in assay [1] was found to be 1.87 µg/mL; in assay [2], 1.01 µg/mL; in [13] it was 0.178 µg/mL; in assay [15] it was 1.31 µg/mL. The IC95, pseudovirus neutralization in [1] amounted to 3.5 µg/mL; in [2], 1.75 µg/mL; in assay [13], 0.332 µg/mL; in assay [15], 2.33 µg/mL. The substance further returned an IC50 (µg/mL), pseudovirus neutralization in assay [3] of 9.79 µg/mL. Moreover, the values for the neutralization IC50 in [4], in assay [5] and in assay [6] were 19.2 µg/mL, 0.073 µg/mL and above 50 µg/mL, respectively. Further, the IC50 (µg/mL) neutralization in assay [7] was above 50 µg/mL. Also, the IC50 is above 50 µg/mL in [8] and 0.053 µg/mL in [9]. The Fold IC50 increase relative to wild-type in assay [10] was 1.9 fold; in [11], 0.6 fold; in assay [12], 2 fold.
In the case of 5123_A06 (PGT-125) (antibody), the IC50 (ug/ml), neutralizing activity in [1] is 0.0128 µg/mL; in assay [2], 7.31 µg/mL; in assay [13] it was 0.0156 µg/mL; in assay [15], 2.31 µg/mL. The neutralization IC50 in [1] was 0.0128 µg/mL; in assay [2], 7.31 µg/mL; in assay [4] it was above 50 µg/mL; in assay [5], 0.026 µg/mL; in assay [6] it was above 50 µg/mL; in assay [13] it was 0.0156 µg/mL. This substance registered a neutralization IC50 in assay [15] of 2.31 µg/mL. Moreover, the neutralization IC80 in [1] is 0.0414 µg/mL; in assay [2], above 10 µg/mL; in assay [13], 0.0462 µg/mL; in assay [15], above 10 µg/mL. Besides, the neutralization IC90 in [1] was 0.0821 µg/mL; in assay [2], above 10 µg/mL; in assay [13] it was 0.0873 µg/mL; in [15], above 10 µg/mL. Moreover, the neutralization IC95 was 0.154 µg/mL in assay [1], above 10 µg/mL in [2], 0.157 µg/mL in [13] and above 10 µg/mL in assay [15]. In addition, the IC50 (µg/mL), pseudovirus neutralization in assay [3] was above 50 µg/mL. Also, in [7], the IC50 (µg/mL) neutralization was above 50 µg/mL. Further, the concentration for half-maximal inhibition (IC50) was above 50 µg/mL in assay [8] and 0.12 µg/mL in assay [9]. Also, the Fold IC50 increase relative to wild-type in assay [10] was 0.6 fold; in assay [11] it was 1.5 fold; in assay [12], 1.9 fold. The figures for the IC50, pseudovirus neutralization in assay [14] and in assay [16] were 0.157 µg/mL and 0.048 µg/mL, respectively.
For the substance 5141_B17 (PGT-126) (antibody), the IC50 (ug/ml), neutralizing activity is 0.012 µg/mL in [1], 0.501 µg/mL in [2], 0.014 µg/mL in [13] and 0.0639 µg/mL in [15]. In assay [3], this substance returned an IC50 (µg/mL), pseudovirus neutralization of 0.037 µg/mL. Moreover, the neutralization IC50 was above 50 µg/mL in assay [4], 0.03 µg/mL in [5] and above 50 µg/mL in assay [6]. In assay [7], this substance showed an IC50 (µg/mL) neutralization above 50 µg/mL. The IC50 was above 50 µg/mL in assay [8] and 0.009 µg/mL in assay [9]. The Fold IC50 increase relative to wild-type in assay [10] turned out to be 1 fold; in [11], 1 fold; in [12], 1.5 fold. Moreover, the IC50, pseudovirus neutralization in assay [14] was determined as 0.041 µg/mL; in assay [16], 0.048 µg/mL.
For the substance PGT-141 (4964_G22; 4993_K13) (antibody), the IC50 (ug/ml), pseudovirus neutralization in assay [17] is 0.0019 µg/mL; in assay [18], 0.616 µg/mL; in assay [20] it was 0.0563 µg/mL; in assay [21] it was 2.35 µg/mL; in [22], 0.856 µg/mL. In assay [19], this substance returned a neutralization IC50 of 0.392 µg/mL. Besides, the values for the IC50, pseudovirus neutralization in assay [23] and in assay [24] were 8 ng/mL and 0.247 µg/mL, respectively.
For PGT-142 (4995_E20) (antibody), the IC50 (ug/ml), pseudovirus neutralization in [17] was 0.0022 µg/mL; in [18], 0.393 µg/mL; in [20] it was 0.0578 µg/mL; in [21], 1.23 µg/mL; in assay [22], 0.712 µg/mL. Further, the neutralization IC50 in [19] is 0.362 µg/mL. The IC50, pseudovirus neutralization in assay [23] was 3 ng/mL; in [24], 0.183 µg/mL.
Turning to PGT-143 (4980_N08) (antibody), the IC50 (ug/ml), pseudovirus neutralization in assay [17] is 0.0028 µg/mL; in [18], 0.618 µg/mL; in [20], 0.0657 µg/mL; in assay [21], 1.82 µg/mL; in assay [22] it was 0.585 µg/mL. The substance further registered a neutralization IC50 in assay [19] of 0.423 µg/mL. The results for the IC50, pseudovirus neutralization in assay [23] and in assay [24] were 4 ng/mL and 0.336 µg/mL, respectively.
PGT-144 (4970_K22) (antibody): the IC50 (ug/ml), pseudovirus neutralization was 0.0934 µg/mL in assay [17]; 5.12 µg/mL in assay [18]; 4.02 µg/mL in [20]; above 10 µg/mL in assay [21]; above 10 µg/mL in assay [22]. This substance also came in with a neutralization IC50 in [19] above 50 µg/mL. The values for the IC50, pseudovirus neutralization in assay [23] and in assay [24] were 513 ng/mL and 17.6 µg/mL, respectively.
